In data set [1] the target is hTSH (human thyroid stimulating hormone) (Homo sapiens, UniProt P01215;P01222 P01215:25-116,P01222:21-132). In words: ELONA; RNA as capture molecule in TEM buffer; signals analogous to commercial ELISA. To be noted: tags: Becton Dickinson, 9 IU/mg, Mr 27,700; label: 5'-biotin (GDP-beta-S, iodoacetyl-LC-biotin).
Data set [2] deals with VEGF (vascular endothelial growth factor) (Homo sapiens, UniProt P15692-4 P15692-4:27-191). In words: ELONA; 95% CI 0.19-0.33 nM, N=6; VEGF titration in sandwich with capture antibody, ligand 400 nM as detector, room temperature; 0.236 nM in Superblock/TBS-Tween variant. The conditions noted are these: tags: R&D Systems recombinant human VEGF; chain copies: 2; label: 3'-biotin.
Chain of VEGF (vascular endothelial growth factor) (P15692 other isoform, or with tags, fused parts or gaps): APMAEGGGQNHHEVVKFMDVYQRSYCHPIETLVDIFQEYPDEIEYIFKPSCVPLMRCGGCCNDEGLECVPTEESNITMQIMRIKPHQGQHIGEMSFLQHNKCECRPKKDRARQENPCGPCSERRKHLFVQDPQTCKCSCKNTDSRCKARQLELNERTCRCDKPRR

In data set [3] the target is hCG (human chorionic gonadotropin) (Homo sapiens, UniProt P01215;P0DN86 P01215:25-116,P0DN86:21-165). In words: ELONA; RNA as capture molecule in TEM buffer; detection down to 200 mIU (340 pM). The conditions noted are these: tags: Vitro Diagnostics, 14,000 IU/mg, Mr 42,000; label: 5'-biotin (GDP-beta-S, iodoacetyl-LC-biotin).
Chain of hCG (human chorionic gonadotropin) (P01215 25-116, chain 1 of 2, other chains not shown): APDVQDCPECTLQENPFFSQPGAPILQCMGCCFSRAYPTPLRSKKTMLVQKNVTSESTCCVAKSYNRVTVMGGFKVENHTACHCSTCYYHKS

Chain of hTSH (human thyroid stimulating hormone) (P01215 25-116, chain 1 of 2): as the sequence (P01215 25-116, chain 1 of 2, other chains not shown) above
Chain of hTSH (human thyroid stimulating hormone) (P01222 21-132, chain 2 of 2): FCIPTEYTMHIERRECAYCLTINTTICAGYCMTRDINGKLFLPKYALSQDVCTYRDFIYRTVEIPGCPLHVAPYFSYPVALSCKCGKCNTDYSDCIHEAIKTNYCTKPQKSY

B1: T-15 (ssRNA)
RNA: GGGAGGACGAUGCGGAUGUUGGCAGCAGGGUCCGACGGCGUAACCUUGCCAGCUGCAGACGACUCGCCCGA
modifications: 2'-NH2 on all C and U
Turning to B1, in data set [1], the binding result is “binds”.

B2: VEGF-NeXamer (ssRNA)
RNA: ACCCUGAUGGUAGACGCCGGG
modifications: 2'-NH2 pyrimidines
As for B2, the EC50 in data set [2] is 0.25 nM.

B3: H-42 (ssRNA)
RNA: GGGAGGACGAUGCGGACAAGGGCCUGAGUGUGGAGGGCACGUGGAGGGGACUGGCCAGACGACUCGCCCGA
modifications: 2'-NH2 on all C and U
For B3, the binding result in data set [3] is given as “binds”.

What is called EC50 is the concentration at which the effect is half-maximal.

The record behind these values is patent US5789163, “Enzyme linked oligonucleotide assays (ELONAS)” (NeXstar Pharmaceuticals, Inc.).
